Assay results: publication PMC4334984, “In Vitro Selection of a Single-Stranded DNA Molecular Recognition Element against Clostridium difficile Toxin B and Sensitive Detection in Human Fecal Matter”

Biological target: Toxin B (Clostridium difficile, UniProt P18177 1-2366)
Test: SPR (single cycle kinetics, 1:1 model); […] (pH not stated); […]; SPR temperature not stated
Details: protein: commercial

Chain of Toxin B (P18177 whole entry): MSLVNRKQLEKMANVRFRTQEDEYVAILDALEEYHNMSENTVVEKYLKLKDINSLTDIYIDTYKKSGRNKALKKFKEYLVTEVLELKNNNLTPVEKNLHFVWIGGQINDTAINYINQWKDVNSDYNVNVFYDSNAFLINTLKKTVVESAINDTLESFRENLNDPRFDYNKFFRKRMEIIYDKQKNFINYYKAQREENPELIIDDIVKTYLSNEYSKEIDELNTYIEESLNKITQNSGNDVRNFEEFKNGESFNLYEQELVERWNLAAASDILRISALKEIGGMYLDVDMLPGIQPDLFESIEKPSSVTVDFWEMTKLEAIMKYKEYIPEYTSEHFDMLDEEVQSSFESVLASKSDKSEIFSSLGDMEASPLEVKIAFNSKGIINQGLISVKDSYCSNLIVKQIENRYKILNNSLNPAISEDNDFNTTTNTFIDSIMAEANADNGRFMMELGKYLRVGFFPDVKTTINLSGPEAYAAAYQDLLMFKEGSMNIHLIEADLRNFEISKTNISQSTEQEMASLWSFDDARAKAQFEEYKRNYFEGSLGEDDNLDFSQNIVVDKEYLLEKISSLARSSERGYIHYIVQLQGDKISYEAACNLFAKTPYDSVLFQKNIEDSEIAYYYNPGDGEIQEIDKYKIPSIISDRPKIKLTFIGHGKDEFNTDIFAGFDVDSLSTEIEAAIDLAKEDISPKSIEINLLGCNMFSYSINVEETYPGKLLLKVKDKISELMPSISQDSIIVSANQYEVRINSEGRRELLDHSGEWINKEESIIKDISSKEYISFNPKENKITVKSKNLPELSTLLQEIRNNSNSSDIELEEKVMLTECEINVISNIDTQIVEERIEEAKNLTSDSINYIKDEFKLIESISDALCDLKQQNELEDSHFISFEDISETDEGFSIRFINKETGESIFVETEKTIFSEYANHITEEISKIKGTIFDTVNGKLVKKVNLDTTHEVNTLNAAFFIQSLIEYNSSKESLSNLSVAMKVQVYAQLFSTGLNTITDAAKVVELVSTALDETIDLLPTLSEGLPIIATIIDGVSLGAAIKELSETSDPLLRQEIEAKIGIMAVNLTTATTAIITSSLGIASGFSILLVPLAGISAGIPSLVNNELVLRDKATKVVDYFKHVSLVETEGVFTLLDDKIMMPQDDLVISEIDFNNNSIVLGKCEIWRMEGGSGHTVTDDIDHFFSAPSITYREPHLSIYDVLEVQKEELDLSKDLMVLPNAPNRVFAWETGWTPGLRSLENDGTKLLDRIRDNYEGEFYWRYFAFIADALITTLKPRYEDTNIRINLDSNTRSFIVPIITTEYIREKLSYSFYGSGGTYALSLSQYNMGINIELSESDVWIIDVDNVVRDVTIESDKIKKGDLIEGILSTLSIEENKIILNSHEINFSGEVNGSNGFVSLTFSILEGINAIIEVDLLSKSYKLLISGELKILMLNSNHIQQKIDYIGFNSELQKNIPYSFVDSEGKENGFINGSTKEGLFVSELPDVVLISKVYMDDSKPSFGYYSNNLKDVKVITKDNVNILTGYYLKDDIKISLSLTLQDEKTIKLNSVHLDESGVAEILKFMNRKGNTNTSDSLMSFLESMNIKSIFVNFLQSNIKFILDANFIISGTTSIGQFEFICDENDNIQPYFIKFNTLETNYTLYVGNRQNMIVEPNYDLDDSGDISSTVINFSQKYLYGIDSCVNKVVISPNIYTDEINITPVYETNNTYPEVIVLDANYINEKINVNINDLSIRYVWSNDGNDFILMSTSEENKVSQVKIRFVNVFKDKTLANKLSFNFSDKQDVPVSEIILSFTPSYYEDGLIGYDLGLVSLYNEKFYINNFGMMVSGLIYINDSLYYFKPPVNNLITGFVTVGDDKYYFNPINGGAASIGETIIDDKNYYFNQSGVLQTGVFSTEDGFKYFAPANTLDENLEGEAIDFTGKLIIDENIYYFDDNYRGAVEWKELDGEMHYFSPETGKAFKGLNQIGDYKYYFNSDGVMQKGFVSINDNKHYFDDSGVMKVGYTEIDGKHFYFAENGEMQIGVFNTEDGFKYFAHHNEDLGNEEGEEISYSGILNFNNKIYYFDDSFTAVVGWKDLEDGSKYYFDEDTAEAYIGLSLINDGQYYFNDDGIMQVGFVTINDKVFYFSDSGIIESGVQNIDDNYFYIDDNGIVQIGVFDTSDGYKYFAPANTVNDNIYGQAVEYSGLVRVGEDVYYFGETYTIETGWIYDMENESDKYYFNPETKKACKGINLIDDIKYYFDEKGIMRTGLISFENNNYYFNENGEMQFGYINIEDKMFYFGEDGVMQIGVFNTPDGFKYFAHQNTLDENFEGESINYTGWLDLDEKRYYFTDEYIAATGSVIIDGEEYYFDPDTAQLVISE

B1: R12.69 (SPR) (ssDNA)
DNA: TGTACCGTCTGAGCGATTCGTACCCTCGCTAATGCTGCTTGATGTGTGGCCTCGAATAGCCAGTCAGTGTTAAGGAGTGC
modifications: 5'-amino-C6
Kd: 47.3 ± 13.7 nM
